Test results: patent US20130195872A1 (NOVIMMUNE S A, published 2013)
Substitutions are numbered along the chain they refer to. Each block holds one binder with its values, some of them ahead of it.

Legend:
[1] = biological target: T1, human IL-17A/IL-17F heterodimer (human, UniProt Q16552 24-155; Q96PD4 31-163, limits assumed); assay: cell-based or functional assay
T1 sequence (looked up) 1: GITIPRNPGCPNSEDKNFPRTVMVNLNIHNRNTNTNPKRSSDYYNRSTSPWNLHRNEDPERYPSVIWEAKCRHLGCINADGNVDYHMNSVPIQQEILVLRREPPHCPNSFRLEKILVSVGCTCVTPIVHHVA
T1 sequence (looked up) 2: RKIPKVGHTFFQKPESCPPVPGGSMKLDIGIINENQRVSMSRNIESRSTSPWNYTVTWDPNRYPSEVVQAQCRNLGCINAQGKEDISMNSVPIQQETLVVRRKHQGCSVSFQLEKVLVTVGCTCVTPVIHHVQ

mouse IL-17F homodimer [2] = biological target: T2, mouse IL-17F homodimer (mouse, UniProt Q7TNI7 29-161, limits assumed); assay: cell-based or functional assay
T2 sequence (looked up): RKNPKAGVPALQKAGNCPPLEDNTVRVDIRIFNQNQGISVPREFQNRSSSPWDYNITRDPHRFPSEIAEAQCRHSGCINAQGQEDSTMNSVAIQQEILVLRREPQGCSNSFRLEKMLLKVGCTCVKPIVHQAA

mouse IL-17A homodimer [3] = biological target: T3, mouse IL-17A homodimer (mouse, UniProt Q62386 26-158, limits assumed); assay: cell-based or functional assay
T3 sequence (looked up): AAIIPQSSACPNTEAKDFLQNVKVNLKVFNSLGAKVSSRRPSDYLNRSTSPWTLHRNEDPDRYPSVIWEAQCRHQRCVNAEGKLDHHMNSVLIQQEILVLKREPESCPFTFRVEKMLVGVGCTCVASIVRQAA

[4] = biological target: T4, mouse IL-17A/IL-17F heterodimer (mouse, UniProt Q62386 26-158; Q7TNI7 29-161, limits assumed); assay: cell-based or functional assay
T4 sequence (looked up) 1: T3 sequence (looked up)
T4 sequence (looked up) 2: T2 sequence (looked up)

rat IL-17F homodimer = biological target: T5, rat IL-17F homodimer (rat, UniProt Q5BJ95 29-161); assay: cell-based or functional assay
T5 sequence (looked up): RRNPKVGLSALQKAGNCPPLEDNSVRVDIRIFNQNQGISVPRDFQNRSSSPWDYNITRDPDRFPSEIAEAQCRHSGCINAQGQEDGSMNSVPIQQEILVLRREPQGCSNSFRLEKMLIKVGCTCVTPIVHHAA

rat IL-17A homodimer [5] = biological target: T6, rat IL-17A homodimer (rat, UniProt Q61453 18-150, limits assumed); assay: cell-based or functional assay
T6 sequence (looked up): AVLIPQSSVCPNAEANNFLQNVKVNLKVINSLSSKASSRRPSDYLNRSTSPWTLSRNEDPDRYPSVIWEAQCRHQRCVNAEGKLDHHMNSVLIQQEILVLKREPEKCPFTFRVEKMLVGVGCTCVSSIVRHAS

human IL-17A homodimer [6] = biological target: T7, human IL-17A homodimer (human, UniProt Q16552 20-155, limits assumed); assay: cell-based or functional assay
T7 sequence (looked up): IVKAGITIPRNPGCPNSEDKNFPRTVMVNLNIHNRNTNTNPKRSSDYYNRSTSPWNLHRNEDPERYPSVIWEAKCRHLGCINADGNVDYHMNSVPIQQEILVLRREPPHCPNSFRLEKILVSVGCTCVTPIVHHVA

[7] = biological target: T8, cynomolgus IL-17A homodimer (cynomolgus, UniProt A0A2K5TTB0 20-155); assay: cell-based or functional assay
T8 sequence: T7 sequence (looked up) with T7A, P12S, N38S, I81V, N82K, P108R

human IL-17A homodimer [8] = biological target: T7, human IL-17A homodimer; assay: cell-based or functional assay; remark: listed apart in the source
human IL-17A homodimer [9] = biological target: T7, human IL-17A homodimer; assay: FLISA, cytokine on beads
[10] = biological target: T9, cynomolgus IL-17F homodimer (cynomolgus, UniProt G7P4V0 31-163); assay: FLISA, cytokine on beads
T9 construct: range 31-163; Produced in house in PEAK cells, His-tagged, predominantly disulfide-linked homodimer; also called cyIL-17F; cnIL-17F; not shown: N-terminal His tag
T9 sequence: T1 sequence (looked up) 2 with G22E, I29T, R73K, N74H, V100L, I129V

[11] = biological target: T9, cynomolgus IL-17F homodimer; assay: cell-based or functional assay
[12] = biological target: T8, cynomolgus IL-17A homodimer; assay: cell-based or functional assay; remark: listed apart in the source
[13] = biological target: cynomolgus IL-17A/IL-17F heterodimer (cynomolgus); assay: cell-based or functional assay
[14] = biological target: T8, cynomolgus IL-17A homodimer; assay: FLISA, cytokine on beads
human IL-17A homodimer [15] = biological target: T7, human IL-17A homodimer; assay: SPR Biacore, mAb captured, cytokine as analyte
[16] = biological target: T8, cynomolgus IL-17A homodimer; assay: SPR Biacore, mAb captured, cytokine as analyte
[17] = biological target: T10, cynomolgus IL-17A/IL-17F heterodimer (cynomolgus); assay: SPR Biacore, mAb captured, cytokine as analyte
T10 construct: Produced in house in PEAK cells; how the heterodimer was made is not described; also called cyIL-17A-F heterodimer; cynomolgus IL-17A/F

mouse IL-17F homodimer [18] = biological target: T2, mouse IL-17F homodimer; assay: SPR Biacore, mAb captured, cytokine as analyte
mouse IL-17A homodimer [19] = biological target: T3, mouse IL-17A homodimer; assay: SPR Biacore, mAb captured, cytokine as analyte
[20] = biological target: T4, mouse IL-17A/IL-17F heterodimer; assay: SPR Biacore, mAb captured, cytokine as analyte
rat IL-17A homodimer [21] = biological target: T6, rat IL-17A homodimer; assay: SPR Biacore, mAb captured, cytokine as analyte

B2: 5E12 antibody (antibody, IgG4, V domains shown)
VH: QVQLVQSGGGLVQPGRSLRLSCAASGFTFDDYAMHWVRQAPGKGLEWVSGISWNSGTIGYADSVKGRFTISRDNAKNSLYLQMNSLRAEDTALYYCAKELYISDWDSYSYGMDVWGQGTTVTVSS
VL: not shown
notes: also called Mab05; 5E12 IgG4
- IC50, IL-6 secretion by MEF cells, cytokine at 5 ng/ml (human IL-17A homodimer [8]): > 1000 nM
- IC50, IL-6 secretion by MEF cells, cytokine at 17.5 ng/ml [1]: > 1000 nM
- binding result (human IL-17A homodimer [9]): no binding
- binding result [10]: binds

B3: 30D12BF antibody (antibody, V domains shown)
VH: QVQLVQSGAEVKKPGASVKVSCKASGYTFTSYDINWVRQATGQGLEWMGWLNPDSGVIRYAQKFQGRVTMTRDTSISTAYMELSSLRSEDTAVYYCAREWFGELPSYYFYSGMDVWGQGTTVTVSS
VL: EIVLTQSPATLSLSPGERATLSCRASQSVSSYLAWYQQKPGQAPRLLIYDASNRATGIPARFSGSGSGTDFTLTISSLEPEDFAVYYCQQRSNWPPTFGPGTKVDIK
- IC50, IL-6 secretion by MEF cells, cytokine at 5 ng/ml (human IL-17A homodimer [8]): 1.6 nM
- IC50, IL-6 secretion by MEF cells, cytokine at 17.5 ng/ml [1]: 27 nM
- IC50, IL-6 secretion by MEF cells, cytokine at 25 ng/ml [11]: 130 nM
- IC50, IL-6 secretion by MEF cells, cytokine at 5 ng/ml [12]: 2.5 nM
- IC50, IL-6 secretion by MEF cells, cytokine at 25 ng/ml [13]: 13 nM
- IC50, IL-6 secretion by MEF cells, cytokine at 25 ng/ml (rat IL-17F homodimer): 30 nM
- IC50, IL-6 secretion by MEF cells, cytokine at 5 ng/ml (rat IL-17A homodimer [5]): > 1000 nM
- IC50, IL-6 secretion by HFFF2 human fibroblasts, cytokine at 25 ng/ml (human IL-17A homodimer [6]): 3 nM
- IC50, IL-6 secretion by HFFF2 human fibroblasts, cytokine at 25 ng/ml [7]: 5.7 nM

B7: 4H11 antibody (antibody, IgG1, V domains shown)
VH: EVQLVESGGGLVQPGGSLKLSCAASGFTFSGSSMHWVRQASGKGLDWVGRIRSKANSYATAYAASVIGRFTISRDDSKNTAYLQMNSLKTEDTAVYYCTTSVATTLTDYYGMDVWGQGTTVTVSS
VL: EIVLTQSPATLSLSPGERATLSCRASQSVSSYLAWYQQKPGQAPRLLIYDASNRATGIPARFSGSGSGTDFTLTISSLEPEDFAVYYCQQRSNWPPFTFGPGTKVDIK
notes: also called Mab09; 4H11 IgG1
- IC50, IL-6 secretion by MEF cells, cytokine at 5 ng/ml (human IL-17A homodimer [8]): 87 nM
- IC50, IL-6 secretion by MEF cells, cytokine at 17.5 ng/ml [1]: 810 nM
- IC50, IL-6 secretion by HFFF2 human fibroblasts, cytokine at 25 ng/ml (human IL-17A homodimer [6]): 108 nM
- binding result [10]: binds
- binding result [14]: binds

Second part, led by results:

- IC50, IL-6 secretion by MEF cells, cytokine at 17.5 ng/ml [1]: 4.4 nM
- IC50, IL-6 secretion by MEF cells, cytokine at 50 ng/ml (mouse IL-17F homodimer [2]): 6.2 nM
- IC50, IL-6 secretion by MEF cells, cytokine at 5 ng/ml (mouse IL-17A homodimer [3]): > 1000 nM
- IC50, IL-6 secretion by MEF cells, cytokine at 50 ng/ml [4]: 170 nM
- IC50, IL-6 secretion by MEF cells, cytokine at 25 ng/ml (rat IL-17F homodimer): 0.71 nM
- IC50, IL-6 secretion by MEF cells, cytokine at 5 ng/ml (rat IL-17A homodimer [5]): > 1000 nM
- IC50, IL-6 secretion by HFFF2 human fibroblasts, cytokine at 25 ng/ml (human IL-17A homodimer [6]): 21 nM
- IC50, IL-6 secretion by HFFF2 human fibroblasts, cytokine at 25 ng/ml [7]: 20 nM
B1: 39F12A antibody (antibody, V domains shown)
VH: QVQLVQSGAEVKKPGSSVKVSCKASGGTLSSYAFSWVRQAPGQGLEWMGGIIPFFGTTNYAQKFQGRVIITADESTNTAYMELSGLRSEDTAVYYCARDRDYYGLGSPFYYYGMDVWGQGTTVTVSS
VL: EIVLTQSPDFQSVTPKEKVTITCRASQSIGSSLHWYQQKPDQSPKLLIKYASQSFSGVPSRFSGSGSGTDFTLTINSLEAEDAATYYCHQSSSLPWTFGQGTKVEIK

- IC50, IL-6 secretion by MEF cells, cytokine at 5 ng/ml (human IL-17A homodimer [8]): > 1000 nM
- IC50, IL-6 secretion by MEF cells, cytokine at 17.5 ng/ml [1]: 910 nM
- binding result [10]: binds
- binding result [14]: binds
B4: 38B1 antibody (antibody, IgG1, V domains shown)
VH: EVQLVESGGGLVQPGRSLRLSCAASGFTFDDFAMHWVRQAPGKGLEWVSGINWNSGSIGYADSVKGRFTISRDNAKNSLYLQMNSLRAEDTALYYCAKDIAAAGEFYFDMDVWGQGTTVTVSS
VL: B3 VL with P100Q, V104L, D105E
notes: also called 38B1 IgG1

- IC50, IL-6 secretion by MEF cells, cytokine at 5 ng/ml (human IL-17A homodimer [8]): 680 nM
- IC50, IL-6 secretion by MEF cells, cytokine at 17.5 ng/ml [1]: 810 nM
- IC50, IL-6 secretion by HFFF2 human fibroblasts, cytokine at 25 ng/ml (human IL-17A homodimer [6]): > 1000 nM
- binding result [10]: binds
- binding result [14]: binds
B5: 4B11 antibody (antibody, IgG1, V domains shown)
VH: QLQLQESGPGLVKPSETLSLTCAVSDDYISSRSYYWGWIRQPPGKGLEWIGSIYYSGSTYYNPSLKSRVTISVDTSKNQFSLKVSSVTATDTAVYYCARVSGWNGNWFDPWGQGTLVTVSS
VL: not shown
notes: also called 4B11 IgG1

- IC50, IL-6 secretion by MEF cells, cytokine at 5 ng/ml (human IL-17A homodimer [8]): 0.18 nM
- IC50, IL-6 secretion by MEF cells, cytokine at 5 ng/ml [12]: 0.04 nM
- IC50, IL-6 secretion by MEF cells, cytokine at 25 ng/ml [13]: 0.08 nM
- IC50, IL-6 secretion by MEF cells, cytokine at 50 ng/ml (mouse IL-17F homodimer [2]): > 1000 nM
- IC50, IL-6 secretion by MEF cells, cytokine at 50 ng/ml [4]: > 1000 nM
- IC50, IL-6 secretion by HFFF2 human fibroblasts, cytokine at 25 ng/ml (human IL-17A homodimer [6]): 0.83 nM
- IC50, IL-6 secretion by HFFF2 human fibroblasts, cytokine at 25 ng/ml [7]: 0.76 nM
- Kd (human IL-17A homodimer [15]): 0.0117 nM
- Kd [16]: 0.0104 nM
- Kd [17]: 0.0394 nM
- Kd (mouse IL-17F homodimer [18]): 0.236 nM
- Kd [20]: 0.524 nM
B6: 15E6FK antibody (antibody, V domains shown)
VH: EVQLVESGGGLVQPGRSLRLSCAASGFTFDDYAMHWVRQAPGKGLEWVSGINWSSGGIGYADSVKGRFTISRDNAKNSLYLQMNSLRAEDTALYYCARDIGGFGEFYWNFGLWGRGTLVTVSS
VL: not shown
notes: kappa light chain (captured by anti-human IgG-kappa); also called mAb 15E6FK; 15E6FK IgG1
- binding result (mouse IL-17A homodimer [19]): no binding (tested: up to 90 nM cytokine)
- binding result (rat IL-17A homodimer [21]): no binding (tested: up to 90 nM cytokine)

- IC50, IL-6 secretion by MEF cells, cytokine at 5 ng/ml (human IL-17A homodimer [8]): > 1000 nM
- IC50, IL-6 secretion by MEF cells, cytokine at 17.5 ng/ml [1]: > 1000 nM
- binding result (human IL-17A homodimer [9]): no binding
- binding result [10]: binds
B8: 41B10 antibody (antibody, IgG4, V domains shown)
VH: not shown
VL: DIQMTQSPSSLSASVGDRVTITCRASQGISSWLAWYQQKPEKAPKSLIYAASSLQSGVPSRFSGSGSGTDFTLTISSLQPEDFATYYCQQYNSYPITFGQGTRLEIK
notes: also called 41B10 IgG4
